The target in one data set is Gsx2HD I234E (Mus musculus, UniProt P31316 203-264, I234E). In words: ITC. On the technique in general: Isothermal titration calorimetry measures the heat released or taken up as one component is titrated into another.
Data set [1] deals with T1, Gsx2HD L231E (Mus musculus, UniProt P31316 203-264, L231E). In words: EMSA. (In general: Mobility shift assays separate free from complexed probe on a gel.)
Data set [2] deals with T2, Gsx2HD S212E (Mus musculus, UniProt P31316 203-264, S212E). The data set is described as follows: EMSA.
Data set [3] has as its target T3, Gsx2HD L216E (Mus musculus, UniProt P31316 203-264, L216E). In words: EMSA.
Data set [4] deals with T4, Gsx2 167-305 (Mus musculus, UniProt P31316 167-305). In words: EMSA.
Data set [5] has as its target T4, Gsx2 167-305. In words: EMSA. This is another data set of the same source.
The target of the next data set is Gsx2HD (Mus musculus, UniProt P31316 203-264). The data set is described as follows: ITC.
In data set [6] the target is T4, Gsx2 167-305. In words: ITC.
Data set [7] deals with T1, Gsx2HD L231E. In words: EMSA. This is another data set of the same source.
Data set [8] addresses T2, Gsx2HD S212E. In words: EMSA. This is another data set of the same source.
The target in data set [9] is T3, Gsx2HD L216E. The data set is described as follows: EMSA. The source holds these as a separate data set.

Residue numbers refer to the chain shown, from its start. Like-named read-outs stand apart in the source and are kept apart here.

T4 sequence (P31316 167-305): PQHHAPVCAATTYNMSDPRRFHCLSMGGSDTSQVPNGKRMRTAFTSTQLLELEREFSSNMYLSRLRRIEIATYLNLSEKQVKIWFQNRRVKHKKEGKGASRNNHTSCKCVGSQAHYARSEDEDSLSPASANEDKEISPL
T3 sequence (P31316 203-264 L216E): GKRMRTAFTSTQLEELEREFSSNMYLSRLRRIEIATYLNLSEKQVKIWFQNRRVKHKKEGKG
T2 sequence (P31316 203-264 S212E): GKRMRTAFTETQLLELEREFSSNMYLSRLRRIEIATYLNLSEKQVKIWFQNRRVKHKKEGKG
T1 sequence (P31316 203-264 L231E): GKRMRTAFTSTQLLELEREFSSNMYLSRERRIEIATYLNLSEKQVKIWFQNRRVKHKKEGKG
Chain of Gsx2HD (P31316 203-264): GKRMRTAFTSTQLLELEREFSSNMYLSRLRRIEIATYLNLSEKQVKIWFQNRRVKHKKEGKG
Chain of Gsx2HD I234E (P31316 203-264 I234E): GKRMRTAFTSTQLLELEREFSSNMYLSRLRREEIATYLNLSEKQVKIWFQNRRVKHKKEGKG

B1: TAATTA consensus monomer site 15mer (dsDNA)
DNA 1: TGAGCTAATTAAAGC
DNA 2: AGCTTTAATTAGCTC
In the case of B1, the equilibrium dissociation constant (Kd) with Gsx2HD I234E came to 20 nM.

B2: 7bpS dimer probe (= AAATT spacer probe) (dsDNA)
DNA 1: TCCAACTAATTAAAATTTAATTCGTAGTGCGGGCGTGGCT
DNA 2: CGAATTAAATTTTAATTAGTTGGA
DNA 3: AGCCACGCCCGCACTA
As for B2, the binding result in the data set with Gsx2HD L231E [1], in the data set with Gsx2HD S212E [2] and in the data set with Gsx2HD L216E [3] was “binds” in each case.

B3: GCGGG spacer dimer probe (dsDNA)
DNA 1: B2 DNA 1 with A13G, A14C, A15G, T16G, T17G
DNA 2: CGAATTACCCGCTAATTAGTTGGA
DNA 3: AGCCACGCCCGCACTA
Turning to B3, in the data set with Gsx2 167-305 [4], the binding result is “binds”.

B4: AATTT spacer dimer probe (dsDNA)
DNA 1: B2 DNA 1 with A15T
DNA 2: CGAATTAAAATTTAATTAGTTGGA
DNA 3: AGCCACGCCCGCACTA
As to B4, the binding result in the data set with Gsx2 167-305 [5] is “binds”.

B5: GGGCC spacer dimer probe (dsDNA)
DNA 1: B2 DNA 1 with A13G, A14G, A15G, T16C, T17C
DNA 2: CGAATTAGGCCCTAATTAGTTGGA
DNA 3: AGCCACGCCCGCACTA
Regarding B5, the binding result in the data set with Gsx2 167-305 [4] is given as “binds”.

B6: GCCGG spacer dimer probe (dsDNA)
DNA 1: B2 DNA 1 with A13G, A14C, A15C, T16G, T17G
DNA 2: CGAATTACCGGCTAATTAGTTGGA
DNA 3: AGCCACGCCCGCACTA
On to B6, for which the binding result with Gsx2 167-305 [4] was “binds”.

B7: ATATT spacer dimer probe (dsDNA)
DNA 1: B2 DNA 1 with A14T
DNA 2: CGAATTAAATATTAATTAGTTGGA
DNA 3: AGCCACGCCCGCACTA
On to B7, for which the binding result with Gsx2 167-305 [5] is given as “binds”.

B8: TAATGG (common Q50) monomer site 15mer (dsDNA)
DNA 1: TGAGCTAATGGAAGC
DNA 2: AGCTTCCATTAGCTC
Regarding B8, the Kd is 36 nM in the data set with Gsx2HD and 143 nM with Gsx2 167-305 [6].

B9: 8bpS dimer probe (dsDNA)
DNA 1: TCCAACTAATTAAAGATTTAATTCGTAGTGCGGGCGTGGCT
DNA 2: CGAATTAAATCTTTAATTAGTTGGA
DNA 3: AGCCACGCCCGCACTA
In the case of B9, the binding result in the data set with Gsx2HD L231E [7], in the data set with Gsx2HD S212E [8] and in the data set with Gsx2HD L216E [9] was “binds” each time.

In general, Kd refers to the equilibrium constant for the complex coming apart. A low value points to higher affinity.

The record behind these values is article PMC10723402.
